Measurements reported in PMC12663325, “Structural insights into mechanisms of zinc scavenging by the Candida albicans zincophore Pra1” (Nature Communications, 2025).

Target: the molecule itself
Test: cryo-EM structure; Pra1:Zn2+ complex; 20 mM Tris-HCl pH 8.0, 150 mM NaCl, 1 mM ZnSO4, 0.05% BSA as additive; C1 map, 2.5 Å

B1: Candida albicans Pra1, recombinant wild type (full-length excluding the signal peptide) (natural protein)
chain: APVTVTRFVDASPTGYDWRADWVKGFPIDSSCNATQYNQLSTGLQEAQLLAEHARDHTLRFGSKSPFFRKYFGNETASAEVVGHFDNVVGADKSSILFLCDDLDDKCKNDGWAGYWRGSNHSDQTIICDLSFVTRRYLTQLCSSGYTVSKSKTNIFWAGDLLHRFWHLKSIGQLVIEHYADTYEEVLELAQENSTYAVRNSNSLIYYALDVYAYDVTIPGEGCNGDGTSYKKSDFSSFEDSDSGSDSGASSTASSSHQHTDSNPSATTDANSHCHTHADGEVHC
modifications: N-linked glycosylation at Asn 48, Asn 89, Asn 135 and Asn 208; three intramolecular disulfide bonds
notes: Pra1 of Candida albicans, codon-optimized full-length PRA1 excluding the signal peptide; the precursor is 299 amino acids including its N-terminal signal peptide; residues 31-251 are seen in the cryo-EM maps; A TEV protease site stood between the His-tag and Pra1; also called zincophore Pra1; wild-type Pra1; not shown: His-tag, N-terminal, cleaved
- stoichiometry N: 6
